Reference: EP2265113B1

Legend:
[1] = biological target: H-ferritin receptors (binding sites) on bovine retinal endothelial cells (BREC cell homogenate); assay: saturation binding of 125I-H-ferritin to BREC homogenate, one-site global fit
[2] = biological target: H-ferritin receptors (binding sites) on rat brain microvasculature (isolated microvessels); assay: saturation binding of 125I-H-ferritin to rat brain microvessels, one-site global fit
[3] = biological target: H-ferritin receptors (binding sites) on bovine retinal endothelial cells (BREC cell homogenate); assay: homologous competition: unlabelled H-ferritin against 0.4 nM 125I-H-ferritin on BREC homogenate, one-site competition fit

For “recombinant human H-ferritin (His tagged, expressed in E. coli, nickel column purified) (from UniProt P02794 1-183) (ligand)”, the Bmax (fmol/mg protein) [1] was 466, the Kd [1] was 2.7 nM and the Bmax (fmol/mg protein) [2] was 573. The Kd [2] was 7.9 nM and the Kd [3] was 2 nM.
